# Experimental data published in the supplement of paper PMC9170038.
# Tested on: MS2 coat protein
# Test: apparent KD of MS2 coat protein; designed switch direction (-1 OFF switch, 1 ON switch): -1; higher = weaker reporter binding
# Outline: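 Transcription of designed RNA switches on Illumina chips was done by stalled E. coli RNA polymerase. SNAP-549-labelled MS2 coat protein was then titrated in doubling steps from 0.7 or 1.5 nM to 3 µM, with steps of 0.8–1.5 h at the lowest and 10–20 min at the highest concentration. The per-design median over clusters of curve-fitted normalised fluorescence is reported as apparent KD.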
# [1] = input ligand: microRNA oligo, concentration not stated
# [2] = Eterna round: R95, input ligand: FMN 200 uM
# [3] = Eterna round: R95, input ligand: microRNA oligo, concentration not stated
# [4] = Eterna round: R95, input ligand: none
Sequence,apparent KD of MS2 coat protein (input ligand: FMN 200 uM),apparent KD of MS2 coat protein [1],apparent KD of MS2 coat protein (input ligand: none),apparent KD of MS2 coat protein [3],also measured
"UACCUGUAGGUAGGAUAUCAUUGCGAUUAGCUAUGAGAAGGACCACAUGAGGAUCACCCAUGUCUACUCAGGAACCGAAAGGUC [Fiskers ExNg1 - 1] (Eterna round: R96, puzzle: Exclusion NG 1)",13 nM,10.4 nM,17.3 nM,–,–
"UACUUGUUAGGAUAUCUUACAUUUGCAUCAUAGUAACCAUUGGAGAAGGGACAUGAGGAUCACCCAUGUUUGGA [tap-tap-tappy2] (Eterna round: R97, puzzle: Exclusion 4)",32.2 nM,–,31.5 nM,–,–
UAGAAACAUGAGGAUCACCCAUGUGAGGAUAUGAAAAAGAAAAGAAAAGAAAGAAGAAUCAGAAGGCACAAAGG [salish99-ex1_r3_082] (puzzle: Exclusion 1),–,–,–,35.8 nM,apparent KD of MS2 coat protein [2]: 38.1 nM; apparent KD of MS2 coat protein [4]: 28.7 nM
"UAGAAAGAAGUCAGGAUAUCAUGAGUUGCAGCUCAUGAGAAGGGACAUGAGGAUCACCCAUGUAACACGCCUCU [Eternabot (L2) Solution 62] (Eterna round: R97, puzzle: Brourd's mod of Exclusion 4)",28.9 nM,–,24.8 nM,–,–
UAGAAUCGAGGAUAUACAUGAGGAUCACCCAUGUGUUGCCGCAUGAUGUGAUCGUCAGGUAGAAGGCGAUUAUA [Exclusion 3 - Mod of Jieux's Gilly Gone Silly 23 v.7] (puzzle: Exclusion 3),–,–,–,35.4 nM,–
"UAGCAUUGCCAAAGGUAGUGCAAAACAUGAGGAUCACCCAUGUAGGAUAUGGUAGGCAAAGCUUACCAGAAGGACAUGAUAAUU [Mat - Exclusion NG 3 - Mod of JL - D17] (Eterna round: R96, puzzle: Exclusion NG 3)",204 nM,46.3 nM,51.5 nM,–,–
UAGGAGUCAGGAUAUGCGAGAGAUUGAAGUAUGGGAUGUGAGCAGAAGGGACAUGAGGAUCACCCAUGUAUGGA [JR_Exclu4_Sub093] (puzzle: Exclusion 4),–,–,–,146 nM,–
UAGGUGCAAGGAUAUCGCCCGGAAGACAUGAGGAUCACCCAUGUACCGGGUGAGUAUGGGCGAGAAGGUGCAUAUU [Usergete] (puzzle: Exclusion 5),–,–,–,75.9 nM,apparent KD of MS2 coat protein [2]: 298 nM; apparent KD of MS2 coat protein [4]: 92 nM
"UAGUAAAAGGUGAGGAUAUCCGCAAUAAAACGUGAGGAGAAGGCACAUGAGGAUCACCCAUGUAGGGUAUCAAA [BmEX4 A.17] (Eterna round: R97, puzzle: Brourd's mod of Exclusion 4)",421 nM,–,450 nM,–,–
"UAGUACAGAGGAUAUACAUGAGGAUCACCCAUGUGUUUCAGCUAGGAGACUAGCGAAAGUAGAAGGCUGUACUU [salish99_ex3_r4_009] (Eterna round: R97, puzzle: Exclusion 3)",22.4 nM,–,8.4 nM,–,–
UAGUGGCAAGGAUAUACAGAGGAGAGGAUUGCAAGAGGUGGACAUGAGGAUCACCCAUGUAGAAGGUGCAGAGA [JR_Exclu2_Sub022] (puzzle: Exclusion 2),–,–,–,252 nM,–
"UAGUUAAACACAGGAUAUCGCCUCUUAUUACAUGAGGAUCACCCAUGUUUAGUUAGUUACAUGUUCGAGAAGGGUGAAGUAGUU [JR_ExcNG2_Sub041] (Eterna round: R96, puzzle: Exclusion NG 2)",793 nM,1300 nM,555 nM,–,–
"UAUAAAACAUAGGAUAUCGAAAUUAUCAUUUAACGAGAAGGAUGAACAUGAGGAUCACCCAUGUGGUAUCAUGG [Mat - Exclusion 6 - JL Mod - D10] (Eterna round: R96, puzzle: Exclusion 6)",–,328 nM,–,–,–
